Test [1] deals with smooth muscle tropomyosin, purified α/β heterodimer of chicken gizzard Tpm1.4 and Tpm2.1 (chicken). The experiment in a line: pull-down; Tpm covalently bound to CNBr-activated Sepharose (40 uL); 200 ug SMTNL1-TMB; 20 mM Tris-HCl pH 7.5, 0.1% beta-mercaptoethanol, 2 h at 4 C; washed with 150 mM NaCl; Coomassie stain, densitometry.
Test [2] has the same target. The experiment in a line: SPR; BIAcore X100; Tpm amine-coupled to CM5 chip; SMTNL1-TMB 0.12-10 uM injected; 20 mM HEPES pH 7.5, 100 mM KCl, 1 mM DTT, 0.005% Tween-20; 25 C; n = 3.
The target in test [3] is SMTNL1-TMB, Tpm-binding region of smoothelin-like 1 protein (amino acids 195-459), unphosphorylated (UniProt Q99LM3). Briefly: pull-down; competition, apo-CaM: SMTNL1-TMB premixed with Tpm (equimolar or other molar ratios) for 1 h at 4 C, then added to CaM-Sepharose with 1 mM EDTA.

Substance “SMTNL1-TMB phosphorylated at Ser301 with PKA (from UniProt Q99LM3 195-459) (domain or fragment)” yielded a fold recovered against unphosphorylated SMTNL1-TMB in test [1] of 2 fold. The same substance yielded a Kd in test [2] of 0.32 µM. As to “SMTNL1-TMB, Tpm-binding region of smoothelin-like 1 protein (amino acids 195-459), unphosphorylated (from UniProt Q99LM3 195-459) (domain or fragment)”, the Kd in test [2] was determined as 3 µM. For the substance “smooth muscle tropomyosin, purified α/β heterodimer of chicken gizzard Tpm1.4 and Tpm2.1 (complex)”, in test [3], the percent reduction of SMTNL1-TMB binding to apo-CaM-Sepharose by equimolar Tpm was 60%.

Values taken from publication PMC5359911.
